According to paper PMC12757481, “The dihydropyridine LA1011 modulates multiple Hsp90—co-chaperone interactions relevant to Alzheimer’s disease” (Cell Stress & Chaperones, 2025):
Several values for one entry are separate records, joined by “and”; a condition that tells them apart may be missing. Identical values can stand only once. Like-named read-outs stand apart in the source and are kept apart here.

What was measured:
Hsp90 [1] = target: T1, Hsp90 (Saccharomyces cerevisiae, UniProt P02829); test: ITC, co-chaperone binding to Hsp90; set-up: species or system yeast
T1 construct: made in house
T1 sequence (P02829 whole entry): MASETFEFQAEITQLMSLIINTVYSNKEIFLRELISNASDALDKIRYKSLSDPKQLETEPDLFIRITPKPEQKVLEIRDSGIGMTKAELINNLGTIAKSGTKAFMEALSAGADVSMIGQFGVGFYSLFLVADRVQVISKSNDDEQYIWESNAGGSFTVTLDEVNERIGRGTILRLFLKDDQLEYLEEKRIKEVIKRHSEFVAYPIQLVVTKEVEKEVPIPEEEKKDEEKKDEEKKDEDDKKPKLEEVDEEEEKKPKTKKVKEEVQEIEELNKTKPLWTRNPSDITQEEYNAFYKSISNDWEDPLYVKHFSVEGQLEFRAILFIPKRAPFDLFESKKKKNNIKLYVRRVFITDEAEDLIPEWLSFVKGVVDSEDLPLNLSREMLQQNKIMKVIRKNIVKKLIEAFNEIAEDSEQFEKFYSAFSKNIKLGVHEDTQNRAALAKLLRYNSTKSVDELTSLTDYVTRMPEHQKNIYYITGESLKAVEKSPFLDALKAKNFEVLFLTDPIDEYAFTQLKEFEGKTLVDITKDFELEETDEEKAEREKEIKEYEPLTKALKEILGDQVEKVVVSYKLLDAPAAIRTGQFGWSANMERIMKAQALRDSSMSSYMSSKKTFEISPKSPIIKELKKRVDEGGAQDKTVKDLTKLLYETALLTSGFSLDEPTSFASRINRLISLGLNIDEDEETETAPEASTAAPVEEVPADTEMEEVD
Protocol: (§1) The heat of interaction was measured on an ITC200 microcalorimeter (Microcal) under the same buffer conditions (20 mM Tris, pH 7.5, containing 5 mM NaCl), except for experiments using PP5, where we omitted EDTA and used 1 μM MnCl2. In experiments using nucleotide, we used 5 mM AMPPNP and 6 mM MgCl2. For experiments using Aha1 with AMPPNP the buffer contained 100 mM NaCl. Similarly, Sgt1 experiments also included 100 mM NaCl in the buffer. […] To assess co-chaperone binding to Hsp90 and Hsp90-LA1011 complex, we generally injected aliquots of co-chaperone at concentrations ranging from 200 to 400 μM into the microcell containing the Hsp90 or Hsp90-LA1011 complex at concentrations ranging from 20 to 30 μM of Hsp90 or Hsp90 in complex with 2 mM LA1011 at 30 °C. Heats of dilution were determined by diluting the injectant into the buffer. Data were fitted using a curve-fitting algorithm (Microcal Origin) either as a one-site binding event or as two independent binding sites as required.

Hsp90-LA1011 = target: T2, Hsp90-LA1011 (Saccharomyces cerevisiae, UniProt P02829); test: ITC, co-chaperone binding to Hsp90-LA1011 complex; set-up: species or system yeast
T2 construct: made in house
T2 sequence (P02829 whole entry): as above
Protocol: as §1

Hsp90 [2] = target: T1, Hsp90; test: Lactate-dehydrogenase and pyruvate-kinase-linked Hsp90 ATPase assay; type: biochemical, yeast; conditions: for effect of LA1011 on the co-chaperone directed regulation of Hsp90 ATPase activity: 2 μM Hsp90, 240 μM LA1011, co-chaperone 0.25 to 30 μM, normalized data compared with control lacking LA1011
Protocol: ATPase assays using 2 μM Hsp90 were conducted as previously described using the lactate-dehydrogenase and pyruvate-kinase-linked assay.[12] Briefly, 240 μM of LA1011 was used in assays as required. Co-chaperones were added to Hsp90 and Hsp90-LA1011 complex at a variety of concentrations ranging from 0.25 to 30 μM. Assays utilizing LA1011 were normalized by recalculating the activity for all data points so that the data points were converted to a percentage of the activity relative to the first data point, which lacked any addition of co-chaperone. The first data point was therefore 100% max Hsp90 activity. All assays were conducted at least in triplicate.
To assess the effect of LA1011 on the mechanistic action of co-chaperones, we used the lactate-dehydrogenase and pyruvate-kinase-linked Hsp90 ATPase assay. We first assessed the effect of each co-chaperone on Hsp90 ATPase activity and then compared its effect on a Hsp90-LA1011 complex.

[3] = ITC 30 °C, co-chaperone and Hsp90 without LA1011, one-site fit, read-out: Kd
[4] = ITC 30 °C, Hsp90 in complex with 2 mM LA1011, one-site fit, read-out: Kd

Molecule | Kd (Hsp90 [1]; [3]) | Kd (Hsp90-LA1011; [4]) | effect on Hsp90 ATPase activity (Hsp90 [2]; 2 μM Hsp90) | effect of LA1011 on the co-chaperone directed regulation of Hsp90 ATPase activity (Hsp90 [2]) | Kd (Hsp90 [1]; ITC, Hsp90 without LA1011, two-site fit, value listed first in Table 2 and figures, read-out: Kd (two-site fit, first value listed)) | Kd (Hsp90 [1]; ITC, Hsp90 without LA1011, two-site fit, value listed second in Table 2 and figures, read-out: Kd (two-site fit, second value listed)) | Kd (Hsp90-LA1011; ITC, Hsp90 with 2 mM LA1011, two-site fit, value listed first in Table 2 and figures, read-out: Kd (two-site fit, first value listed)) | Kd (Hsp90-LA1011; ITC, Hsp90 with 2 mM LA1011, two-site fit, value listed second in Table 2 and figures, read-out: Kd (two-site fit, second value listed))
CHIP: mouse CHIP, Hsp90-dependent E3 ubiquitin ligase co-chaperone, dimeric (protein, UniProt Q9WUD1 1-304, looked up) E3 ubiquitin-protein ligase …: MKGKEEKEGGARLGTGGGGSPDKSPSAQELKEQGNRLFVGRKYPEAAACYGRAITRNPLVAVYYTNRALCYLKMQQPEQALADCRRALELDGQSVKAHFFLGQCQLEMESYDEAIANLQRAYSLAKEQRLNFGDDIPSALRIAKKKRWNSIEERRIHQESELHSYLTRLIAAERERELEECQRNHEGHEDDGHIRAQQACIEAKHDKYMADMDELFSQVDEKRKKRDIPDYLCGKISFELMREPCITPSGITYDRKDIEEHLQRVGHFDPVTRSPLTQEQLIPNLAMKEVIDAFISENGWVEDY | 80 nM | 1440 nM | inhibitor of the ATPase activity of Hsp90 | LA1011 affects CHIP’s ability to inhibit Hsp90 ATPase activity |  |  |  | 
FKBP52: Hsp90 co-chaperone, TPR domain-containing protein (protein, UniProt Q02790 1-459, looked up) Peptidyl-prolyl cis-trans …: MTAEEMKATESGAQSAPLPMEGVDISPKQDEGVLKVIKREGTGTEMPMIGDRVFVHYTGWLLDGTKFDSSLDRKDKFSFDLGKGEVIKAWDIAIATMKVGEVCHITCKPEYAYGSAGSPPKIPPNATLVFEVELFEFKGEDLTEEEDGGIIRRIQTRGEGYAKPNEGAIVEVALEGYYKDKLFDQRELRFEIGEGENLDLPYGLERAIQRMEKGEHSIVYLKPSYAFGSVGKEKFQIPPNAELKYELHLKSFEKAKESWEMNSEEKLEQSTIVKERGTVYFKEGKYKQALLQYKKIVSWLEYESSFSNEEAQKAQALRLASHLNLAMCHLKLQAFSAAIESCNKALELDSNNEKGLFRRGEAHLAVNDFELARADFQKVLQLYPNNKAAKTQLAVCQQRIRRQLAREKKLYANMFERLAEEENKAKAEASSGDHPTDTEMKEEQKSNTAGSQSQVETEA |  |  |  |  | ~620 nM | ~620 nM and 620 nM | 2800 nM | ~200 nM and 200 nM
TPR domain of PP5: PP5-TPR domain (amino acid residues 1-177) (protein, UniProt P53041 1-177, looked up, fragment, TPR domain) MAMAEGERTECAEPPRDEPPADGALKRAEELKTQANDYFKAKDYENAIKFYSQAIELNPSNAIYYGNRSLAYLRTECYGYALGDATRAIELDKKYIKGYYRRAASNMALGKFRAALRDYETVVKVKPHDKDAKMKYQECNKIVKQKAFERAIAGDEHKRSVVDSLDIESMTIEDEYS |  |  |  | small but significant effect |  |  |  | 
Sgt1: yeast Sgt1 (amino acid residues 1-280), Hsp90 co-chaperone (protein, UniProt Q08446 1-280, looked up, fragment) MPVEKDLKTAYKALYDEKEPLKALHLYDEILKGSPTNLTALIFKAACLEKLYFGFSDWHSDATMENAKELLDKALMTAEGRGDRSKIGLVNFRYFVHFFNIKDYELAQSYFKKAKNLGYVDDTLPLWEDRLETKLNKKNKKQKDSTNKHTIKPVESIENRGDNNSSHSPISPLKIETAPQESPKFKIDWYQSSTSVTISLFTVNLPESKEQVNIYISPNDRRTLSISYQVPKSGSEFQYNAKLSHEVDPKAVSLKIFPKKLEITLSKIDSTQWKKLEEDI | 16200 nM | 13600 nM |  | unaffected by the presence of LA1011 |  |  |  | 
